Experimental data as given in patent US11672867B2, “Protein-templated self-assembly of a covalent polymer network for intracellular trafficking and traceless release” (University of Massachusetts, priority 2017, dated 2023).

B1: ribonuclease A (protein, UniProt P61823 27-150, looked up)
Ribonuclease pancreatic: KETAAAKFERQHMDSSTSAASSSNYCNQMMKSRNLTKDRCKPVNTFVHESLADVQAVCSQKNVACKNGQTNCYQSYSTMSITDCRETGSSKYPNCAYKTTQANKHIIVACEGNPYVPVHFDASV
notes: native protein from Sigma-Aldrich, model cargo
B2: NA-RNaseA^PEG: RNase A conjugated to polymer P1 and crosslinked with (PEO)4-bis-amine; nanoassembly (conjugate, UniProt P61823 27-150, looked up)
Ribonuclease pancreatic: B1 Ribonuclease pancreatic
modifications: polymer P1 conjugate, PEO4-bis-amine crosslinked nanoassembly
notes: RNase A conjugated to polymer P1 and crosslinked with (PEO)4-bis-amine; nanoassembly
B3: NA-RNaseA^ED: RNase A conjugated to polymer P1 and crosslinked with ethylenediamine; nanoassembly (conjugate, UniProt P61823 27-150, looked up)
Ribonuclease pancreatic: B1 Ribonuclease pancreatic
modifications: polymer P1 conjugate, ethylenediamine-crosslinked nanoassembly

Key:
[1] = Dynamic light scattering particle size; type: physicochemical; details: 1 mg/mL, phosphate buffer pH 7.4
Protocol: (§1) Dynamic light scattering (DLS) and zeta potential measurements were performed using a Malvern Nanozetasizer-ZS. All samples were diluted with phosphate buffer pH 7.4 to adjust final concentration to 1 mg/mL.

[2] = test system: HeLa cells; test: Cell viability with alamarBlue assay; type: cell-based, Human; details: 72 h
Protocol: Human cervical carcinoma (HeLa) cells were cultured in T75 cell culture flask containing Dulbecco's Modified Eagle Medium/Nutrient Mixture F-12 (DMEM/F12) in a humidified incubator with 5% CO2 at 37° C. Culture media was supplemented with 10% fetal bovine serum (FBS), 1% L-glutamine and 1% antibiotic-antimycotic (100 units/mL of penicillin, 100 μg/mL of streptomycin, and 0.25 μg/mL of Amphotericin B).
HeLa cells were seeded into 96-well tissue culture plates at a density of 5000 cells/well/100 μL sample and incubated at 37° C. After 24 h, culture media was replaced and cells were treated with different concentrations of protein-polymer conjugates and control protein samples (0.1 mg/mL to 2 mg/mL protein concentration) in 100 μL media. All samples were incubated for 6 h at 37° C., then the media was replaced and incubated for another 66 h at 37° C. Afterwards media was replaced, washed with PBS buffer for three times and each well was treated with 100 μL 10% alamarBlue in media with serum. Finally, samples were incubated for 1 h and subjected to fluorescence measurement with SpectraMax® M5 at 560 nm excitation/590 nm emission wavelength in a black 96-well flat bottomed plate. Cellular viability of the small molecule byproducts were assessed using a similar protocol.

[3] = Release kinetics of proteins from nanoassemblies (DTT, SDS-PAGE); details: reducing conditions (DTT)
Protocol: 30 μL of different samples containing NA-Empty^ED, NA-Empty^PEG, NA-Lys^ED, NA-Lys^PEG, NA-RNaseA^ED, NA-RNaseA^PEG, NA-CytC^ED and NA-CytC^PEG were mixed with 10 μL of loading buffer (DTT free) and 25 μL of each sample was loaded on acrylamide gel. For release experiment, identical protein-polymer conjugate samples were treated with 10 mM DTT and incubated at 37° C. for 4 h before subjecting to acrylamide gel electrophoresis. To calculate the amount of released protein from each sample, standard curves were generated from the known concentrations of pure protein samples loaded into the gel lanes. The gel image analysis and quantification were performed with Bio-Rad Image Lab™ software.
To monitor the release kinetics of proteins (lysozyme, RNase A and cytochrome C), 30 μL of NA-Lys^ED, NA-Lys^PEG, NA-RNaseA^ED, NA-RNaseA^PEG, NA-CytC^ED and NA-CytC^PEG samples were incubated at 37° C. with requisite amounts of 10 mM DTT for different time intervals. After each incubation time, samples were collected and immediately frozen at −20° C. Finally, all samples were subjected to SDS-PAGE analysis to quantify the amount of released proteins. Encapsulation and release studies with variations in DTT concentrations and crosslinker concentrations were carried out using similar experimental protocols.

[4] = Crosslinking density from released 4-nitrophenol (UV-Vis, 400 nm); type: physicochemical; details: adjusted for ~1% hydrolysis of control polymer
Protocol: The conjugation process and cross-linking density for the protein-polymer conjugates can be evaluated by UV-Vis spectroscopy. The amount of released 4-nitrophenol was monitored at its λmax 400 nm (measured molar extinction co-efficient≈12.14*10^3 L M^−1 cm^−1 at 400 nm). For each absorbance measurement, samples were diluted to twenty times, for e.g. 50 μL of sample was diluted 1 mL with distilled water. Cross-linking density was calculated by assuming that formation of a single chain crosslinking bond would require cleavage of two NPC units and produce two 4-nitrophenol molecules.
Ratio of NPC:PEG in the polymer, P1=50:50
Molecular weight of repeating NPC-unit=387 g/mol
Amount of polymer used=0.1 mg/mL for each absorbance measurement
From Beer-lamber's law: A=ε.c.1 and path-length=1 cm
Thus, moles of 4-nitro phenol in 1 mL solution=3.04*10^−8
This represents is 23.5 mol % of total NPC unit. As it is assumed that two 4-nitro phenol are released per crosslinking bond formation and NPC unit is 50 mol % of total polymer. Therefore, crosslinking density=23.5/2*0.5=5.9%
Hydrolysis from control polymer sample contributes ˜1% towards cross-linking density and adjusted for all calculations. Crosslinking densities for all other conjugates were calculated based on the above method and summarized below: […]

[5] = Zeta potential measurement; type: physicochemical; details: 1 mg/mL, phosphate buffer pH 7.4
Protocol: as §1

[6] = Calculation of number of proteins per particle; type: physicochemical; details: from DLS diameters, sphere packing efficiency ~74%
Description: Calculation of Number of Proteins Per Particle: Example for NA-Lys^ED: Diameter of nanoassembly, D=9.7 nm, radius, R=4.85 nm Volume of each particle, VPPC=(4/3)πR^3=(4/3) π(4.85)^3 nm^3=477.6×10^−21 cm^3 Again, for lysozyme, diameter of protein, d=3.6 nm, radius, r=1.8 nm Volume of each protein, VLy=(4/3)πr^3=(4/3) π(1.8)^3 nm^3=24.4×10^−21 cm^3 Assuming that maximum sphere packing efficiency to be ˜74%,^ii number of lysozyme per nanoassembly to be=(477.6×10^−21/24.4×10^−21)×(0.74)=14 The results for all other nanoassemblies are summarized below: […]

[7] = Encapsulation efficacy and loading capacity (Pierce 660 nm Protein Assay of filtrate); type: physicochemical; details: for Amount of protein encapsulated, μg (Initial dose = 1 mg): 10 mg P1, 1 mg protein, back-calculated from filtrate
Protocol: All nanoassemblies were evaluated for amount of protein encapsulation after conjugation and cross-linking process. Protein concentration in each sample was measured from the filtrate after crosslinking reaction and the amount of protein was back-calculated in the conjugate. An absorbance based assay (with Pierce™ 660 nm Protein Assay Reagent) was utilized to quantify the protein amount. The encapsulation efficiency (EE) and loading capacity (LC) were calculated based on the following formulas: […]

Molecule	Size, nm (hydrodynamic diameter, DLS) [1] [nm]	Size, nm (hydrodynamic diameter, DLS) ([1]; listed as native CytC) [nm]	Cell viability [2]	Order of overall kinetics of protein release [3]	Crosslinking density, % [4] [%]	Zeta potential, mV [5] [mV]	# of Protein per PPC particle [6]	Loading capacity (LC), % [7] [%]	Amount of protein encapsulated, μg (Initial dose = 1 mg) [7] [µg]
cytochrome C	4.3 ± 0.1	~4	lack of toxicity	CytC<RNaseA<Lys					
lysozyme	3.6 ± 0.4			CytC<RNaseA<Lys					
B1	3.3 ± 0.2			CytC<RNaseA<Lys					
B2	9.5 ± 0.1				5.1	−8.7 ± 0.7	18	5.5	553
B3	9.1 ± 0.1				5.1	−8.2 ± 0.7	16	5.6	558
